Source: patent publication US20220026415A1, “A METHOD FOR SCREENING A THERAPEUTIC AGENT FOR CANCER USING BINDING INHIBITOR OF CYCLIN-DEPENDENT KINASE 1 (CDK1)-CYCLIN B1 AND RETINOIC ACID RECEPTOR RESPONDER 1 (RARRES1) GENE KNOCKOUT ANIMAL MODEL” (NATIONAL CANCER CENTER, priority 2018, published 2022)

Tested on: HEK293 cells
Assay: Cell cycle distribution after release from double thymidine block, flow cytometry
Assay type: cell-based
Description: In the case of a double thymidine block (DTB) synchronized at the G1/S boundary, HEK293 cells were incubated with 2 mM thymidine for 16 hours and maintained in a normal medium for 10 hours, and then 2 mM thymidine was further added thereto for 16 hours.
For analysis of cell cycles or sub-G1 DNA contents, cells were immobilized with 80% ice-cold ethanol, and stored at 4° C. The cells were stained with PBS containing 50 ug/ml of propidium iodide (PI) and 100 ug/ml of RNase A at 37° C. for 30 minutes. DNA content was analyzed by FACS Calibur flow cytometry and the results thereof were analyzed using Cellquest software (Becton-Dickinson Immunocytometry Systems, San Diego, Calif.) and Modfit LT 3.3 software. At least 10,000 cells were analyzed per sample.
To evaluate whether the reduced cell growth observed in RARRES1-overexpressing cells was due to altered cell cycle progression, HEK293 cells were transfected with green fluorescent protein (GFP) tagged-RARRES1 or -empty vector (Ctrl) according to the method of Example 1-1, and the cells were observed by live cell imaging according to Example 1-6. From now on, all data shown was regarded as isoform 1 since there was no difference between the two isoforms of RARRES1 in the above experiments, and it was named ‘RARRES1.’ In HEK293 cells transfected with a GFP control (Ctrl) according to the method of Example 1-1, the cells underwent normal cell cycle progression. A cell entered into mitosis (round shape) within 1 hour, and was separated into two daughter cells within at least 2.5 hours (see FIG. 5A, top panel). […] To confirm mitotic arrest induced by RARRES1 overexpression, GFP-control or GFP-RARRES1-overexpressing 293 cells and 293 cells transfected with a red fluorescent protein (RFP) lentivirus used to label GFP non-transfected cell, according to Example 1-3 were co-cultured, and changes in the number of fluorescence-expressing cells (see FIG. 5B) were monitored. […] Under co-culture conditions of GFP-control coupled with RFP virus-transfected cells, the numbers of both fluorescence-expressing cells were increased over time. […]

B1: RARRES1: RARRES1 isoform 1 overexpressed in HEK293 cells by transfection with an expression vector (protein)
chain: MQPRRQRLPAPWSGPRGPRPTAPLLALLLLLAPVAAPAGSGDPDDPGQPQDAGVPRRLLQQAARAALHFFNFRSGSPSALRVLAEVQEGRAWINPKEGCKVHVVFSTERYNPESLLQEGEGRLGKCSARVFFKNQKPRPTINVTCTRLIEKKKRQQEDYLLYKQMKQLKNPLEIVSIPDNHGHIDPSLRLIWDLAFLGSSYVMWEMTTQVSHYYLAQLTSVRQWKTNDDTIDFDYTVLLHELSTQEIIPCRIHLVWYPGKPLKVKYHCQELQTPEEASGTEEGSAVVPTELSNF
**Q.** Which results are given for B1?
**A.** cells in the G2/M phases (4 hours after release from DTB, control 21.38%): 29.85%; cells in the G2/M phases (6 hours after release from DTB, control 77.41%): 80.91%; cells in the G2/M phases (8 hours after release from DTB, control 45.47%): 54.46%
